Experimental data published in US20080292639A1.

Biological target: native amyloid plaques in unfixed brain sections of Tg2576 APP transgenic mice (human) (UniProt P05067)
Experiment: cell-based or functional assay

Chain of native amyloid plaques in unfixed brain sections of Tg2576 APP transgenic mice (human) (P05067 672-713 limits assumed): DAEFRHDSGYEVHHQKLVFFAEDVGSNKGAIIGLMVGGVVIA

“mAb 4G8 (commercially available anti-Aβ antibody)” was tested, and the EC50 of antibody induced phagocytosis of amyloid was 0.8 µg/mL.

Work on mAb 6E10 (antibody) yielded an EC50 of antibody induced phagocytosis of amyloid of 5 µg/mL.
